Patent US20180016348A1 (Janssen / Centocor, published 2018)

B1: CR12044 (antibody, V domains shown)
VH: EVQLVQSGSEVRKPGSTVKVSCKGSGGAFRTSVIHWVRQAPGQGLRWMGGIIPTLDTANHAQEFQGRATITADESTTTAYLELSSLRSEDSAVYYCATDYGGNSDRLGSYSFAFDVWGQGTTVTVSS
VL: not shown
B2: CR12041 (antibody, V domains shown)
VH: EVQLVQSGAEVKKPGASVKVSCKAAGYTFTNYYLHWVRQAPGQGLESMGIINPSSGGTIYAQKFQGRVTMTRDTSTSTVFMELSSLTSEDTAVYYCARAGEGKSRFGEGKLRYFYYGMDVWGQGTTVTVSS
VL: not shown
B3: CR12042 (antibody, V domains shown)
VH: EVQLVESGAEVRKPGSSVKVSCTASGDTFSSYTITWVRQAPGQGLEWMGEIIPIFGTANYAQKFQGRVTLTADESTTTAYMDLSSLRSEDTAVYYCARGPDNHSDRYFYYGMDVWGQGTTVTVSS
VL: EIVLTQSPLSLPVTPGEPASISCRSSQSLLHSTGNNYLDWYLQKPGQSPQLLIYLGSNRASGVPDRFSGSGSGTDFTLKISRVEAEDVGVYYCMQALQTPRTFGQGTKVDIK
B4: CR12040 (antibody, V domains shown)
VH: QVQLVQSGAEVKKPGASVKVSCKASGYTFTNYYINWVRQAPGQGLEWMGRINPLHGGTGFAEKFQGRLTMTRDTSTSTVDMELSSLRSEDTAIYYCVKERDTTMATDYYGRSGCFDYWGQGTLVTVSS
VL: EIVLTQSPATLSLSPGERATLSCRASQSVRSYLAWYQQKPGQAPRLLIYDASNRATGIPARFSGSGSGTDFSLTISSLEPEDFAVYYCQQRSNWPITFGQGTRLEIK

What follows are binders tested against human FcγRIIIa receptor (V158) (human, UniProt P08637 17-254) (assay: cell-based or functional assay).
Sequence of human FcγRIIIa receptor (V158) (P08637 17-254 F176V limits assumed): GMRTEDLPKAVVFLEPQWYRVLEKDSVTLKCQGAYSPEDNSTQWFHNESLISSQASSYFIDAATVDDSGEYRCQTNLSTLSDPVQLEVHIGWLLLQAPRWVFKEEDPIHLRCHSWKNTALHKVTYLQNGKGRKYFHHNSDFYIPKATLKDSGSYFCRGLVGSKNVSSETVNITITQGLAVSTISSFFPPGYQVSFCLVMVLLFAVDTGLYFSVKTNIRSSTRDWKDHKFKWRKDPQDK

Row | Binder | ADCC reporter D/A ratio; A549 targets infected with H1N1 A/Brisbane/59/2007 | ADCC reporter D/A ratio; A549 targets infected with H1N1 A/Mississippi/03/2001 | ADCC reporter D/A ratio; A549 targets infected with H1N1 A/New Caledonia/20/1999 | ADCC reporter D/A ratio; A549 targets infected with H5N1 A/Hong Kong/156/1997 | ADCC reporter EC50; A549 targets infected with H1N1 A/Brisbane/59/2007 [µg/mL] | ADCC reporter EC50; A549 targets infected with H1N1 A/Mississippi/03/2001 [µg/mL] | ADCC reporter EC50; A549 targets infected with H1N1 A/New Caledonia/20/1999 [µg/mL] | ADCC reporter EC50; A549 targets infected with H5N1 A/Hong Kong/156/1997 [µg/mL]
1 | B1 | 6.49 | 20.2 | 17.5 | 2.37 | 0.28 | 5.19 | 0.93 | 11.6
2 | B2 | 2.15 | 8.38 | 4.08 | 5.48 | 1.97 | 0.58 | 1.61 | 1.09
3 | B3 | 6.11 | 17.4 | 17.7 | 6.87 | 0.08 | 0.14 | 0.28 | 0.01
4 | B4 | 2.73 | 9.26 | 3.19 | 3.1 | 3.83 | 0.06 | 0.07 | 1.22

These binders were tested against neuraminidase (NA) of H3N2 A/Hong Kong/1/1968 (influenza A virus H3N2 A/Hong …, UniProt Q91MA2 1-469) (assay: flow cytometry on 293-F cells transfected with NA; '-: no binding').
Sequence of neuraminidase (NA) of H3N2 A/Hong Kong/1/1968 (Q91MA2 whole entry): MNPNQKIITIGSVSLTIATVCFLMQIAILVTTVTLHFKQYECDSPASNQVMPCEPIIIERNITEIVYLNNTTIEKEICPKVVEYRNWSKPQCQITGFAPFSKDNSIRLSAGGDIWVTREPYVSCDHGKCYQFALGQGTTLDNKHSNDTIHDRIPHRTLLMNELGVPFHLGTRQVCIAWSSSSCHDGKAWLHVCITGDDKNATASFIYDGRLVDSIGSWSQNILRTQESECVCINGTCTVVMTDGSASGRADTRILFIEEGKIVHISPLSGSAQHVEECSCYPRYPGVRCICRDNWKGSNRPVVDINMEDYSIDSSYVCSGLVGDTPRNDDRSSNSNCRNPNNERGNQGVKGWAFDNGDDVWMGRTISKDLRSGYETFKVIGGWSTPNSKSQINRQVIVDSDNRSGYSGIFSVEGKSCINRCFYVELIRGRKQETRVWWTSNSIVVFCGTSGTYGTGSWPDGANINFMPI

Row | Binder | binding result
5 | B1 | no binding (tested: 5 µg/ml)
6 | B2 | no binding (tested: 0.5 µg/ml)
7 | B3 | no binding (tested: 5 µg/ml)
8 | B4 | no binding (tested: 5 µg/ml)

Each binder was assayed against T1, neuraminidase (NA) of H1N1 A/Mississippi/3/2001 (influenza A virus H1N1 …) (assay: cell-based or functional assay).

Row | Binder | IC50 of virus neutralization (VNA on MDCK cells) [µg/mL]
9 | B1 | 0.37
10 | B2 | 0.59
11 | B3 | 0.2
12 | B4 | > 50

What follows are binders tested against T2, neuraminidase (NA) of H3N2 A/Brisbane/10/2007 (influenza A virus H3N2 …) (assay: cell-based or functional assay).

Row | Binder | IC50 of virus neutralization (VNA on MDCK cells; one experiment) [µg/mL]
13 | B3 | > 100

The binders below were run against T3, neuraminidase (NA) of H3N2 A/Wisconsin/67/2005 (influenza A virus H3N2 …) (assay: cell-based or functional assay).

Row | Binder | IC50 of virus neutralization (VNA on MDCK cells; one experiment) [µg/mL]
14 | B3 | > 100

What follows are binders tested against T4, neuraminidase (NA) of H1N1 A/New Caledonia/20/1999 (influenza A virus H1N1 A/New …) (assay: cell-based or functional assay).

Row | Binder | IC50 of virus neutralization (VNA on MDCK cells) [µg/mL]
15 | B1 | 0.13
16 | B2 | 0.74
17 | B3 | 0.2
18 | B4 | > 50

Target: T1, neuraminidase (NA) of H1N1 …
Test: cell-based or functional assay
Remark: another data set of the same source

Row | Binder | EC50 of neuraminidase inhibition (NA-XTD assay, whole virus) [µg/mL]
19 | B1 | 0.96
20 | B2 | > 100
21 | B3 | 0.12
22 | B4 | > 100

Target: T2, neuraminidase (NA) of H3N2 …
Test: cell-based or functional assay
Remark: another data set of the same source

Row | Binder | EC50 of neuraminidase inhibition (NA-XTD assay, whole virus; one experiment) [µg/mL]
23 | B3 | 4.8

Target: T3, neuraminidase (NA) of H3N2 …
Test: cell-based or functional assay
Remark: another data set of the same source

Row | Binder | EC50 of neuraminidase inhibition (NA-XTD assay, whole virus; one experiment) [µg/mL]
24 | B3 | 1.87

Target: T4, neuraminidase (NA) of H1N1 A/New …
Test: cell-based or functional assay
Remark: another data set of the same source

Row | Binder | EC50 of neuraminidase inhibition (NA-XTD assay, whole virus) [µg/mL]
25 | B1 | 0.17
26 | B2 | > 100
27 | B3 | 0.18
28 | B4 | > 100

These binders were tested against T5, neuraminidase (NA) of H1N1 A/Puerto Rico/8/1934 (influenza A virus H1N1 A/Puerto …, UniProt P03468 1-454) (assay: flow cytometry on NA-transfected 293-F cells).
T5 construct: whole, on cells
T5 sequence (P03468 whole entry): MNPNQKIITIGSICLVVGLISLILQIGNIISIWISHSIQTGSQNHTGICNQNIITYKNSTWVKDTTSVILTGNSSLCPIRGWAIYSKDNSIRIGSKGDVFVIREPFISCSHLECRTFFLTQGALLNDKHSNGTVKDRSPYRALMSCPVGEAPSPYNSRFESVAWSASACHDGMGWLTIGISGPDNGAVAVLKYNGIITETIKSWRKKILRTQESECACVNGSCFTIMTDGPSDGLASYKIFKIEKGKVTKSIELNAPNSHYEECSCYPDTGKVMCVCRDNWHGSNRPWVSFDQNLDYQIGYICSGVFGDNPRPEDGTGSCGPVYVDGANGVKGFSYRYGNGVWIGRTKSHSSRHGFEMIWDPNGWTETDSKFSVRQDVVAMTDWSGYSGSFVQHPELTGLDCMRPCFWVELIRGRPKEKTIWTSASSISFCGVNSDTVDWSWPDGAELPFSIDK

Row | Binder | binding result
29 | B1 | binds
30 | B3 | binds
31 | B4 | binds
